Where “and” joins values, the source holds several entries; their conditions need not be identical. Equal entries are not always repeated. Where two headings read alike, the source gives them in different places. Ends that are not written are not given here.
B1: YKTSAAGA (peptide)
chain: YKTSAAGA
B2: YKTSASAA (peptide)
chain: YKTSASAA
B3: Ala6/C-degron peptide with Ala-1 replaced with glycine (peptide)
chain: YKTSAAAAAG
B4: Ala6/C-degron peptide with Ala-3 substituted with proline (peptide)
chain: YKTSAAAPAA
B5: AAAAAA (peptide)
chain: AAAAAA
B6: YKTSAAAA (peptide)
chain: YKTSAAAA
B7: Ala6/C-degron peptide with the threonine mutation of Ala-3 (peptide)
chain: YKTSAAATAA
B8: YKTSAVAA (peptide)
chain: YKTSAVAA
B9: Pirh2 NTD + RING (residues 1–189) (domain or fragment)
chain: MAATAREDGASGQERGQRGCEHYDRGCLLKAPCCDKLYTCRLCHDNNEDHQLDRFKVKEVQCINCEKIQHAQQTCEECSTLFGEYYCDICHLFDKDKKQYHCENCGICRIGPKEDFFHCLKCNLCLAMNLQGRHKCIENVSRQNCPICLEDIHTSRVVAHVLPCGHLLHRTCYEEMLKEGYRCPLCMHS
B10: Ala6/C-degron peptide with Ala-3 substituted with isoleucine (peptide)
chain: YKTSAAAIAA
B11: YKTSAAVA (peptide)
chain: YKTSAAVA
B12: Ala6/C-degron peptide with the threonine mutation of Ala-6 (peptide)
chain: YKTSTAAAAA
B13: YKTSAGAA (peptide)
chain: YKTSAGAA
B14: Ala6/C-degron peptide (sequence: YKTSAAAAAA) (peptide)
peptide: YKTSAAAAAA
B15: three-Ala peptide (peptide)
chain: YKTSAAA
B16: Ala6/C-degron peptide with Ala-4 substituted with serine (peptide)
chain: YKTSAASAAA
B17: Ala6/C-degron peptide (sequence: YKTSAAAAAA) (peptide)
peptide: YKTSAAAAAA
modifications: not fully specified
B18: Ala6/C-degron peptide with the threonine mutation of Ala-5 (peptide)
chain: YKTSATAAAA
B19: Ala6/C-degron peptide with Ala-4 substituted with proline (peptide)
chain: YKTSPAAA
B20: Ala6/C-degron peptide with Ala-3 substituted with lysine (peptide)
chain: YKTSAAAKAA
B21: YKTSAASA (peptide)
chain: YKTSAASA
B22: YKTSAAPA (peptide)
chain: YKTSAAPA
B23: Ala6/C-degron peptide with Ala-2 substituted with isoleucine (peptide)
chain: YKTSAAAAIA

Key:
Experiment in all cases: ITC
[1] = molecular target: B9
[2] = molecular target: B9
[3] = molecular target: B9
[4] = molecular target: unnamed
[5] = molecular target: polyAla/C-degron peptide containing four Ala residues
[6] = molecular target: polyAla/C-degron peptide containing five Ala residues
[7] = molecular target: T1, Pirh2 with Ile110 substituted with a negatively charged residue (human, UniProt Q96PM5 1-261)
T1 sequence (Q96PM5 whole entry, looked up) 1: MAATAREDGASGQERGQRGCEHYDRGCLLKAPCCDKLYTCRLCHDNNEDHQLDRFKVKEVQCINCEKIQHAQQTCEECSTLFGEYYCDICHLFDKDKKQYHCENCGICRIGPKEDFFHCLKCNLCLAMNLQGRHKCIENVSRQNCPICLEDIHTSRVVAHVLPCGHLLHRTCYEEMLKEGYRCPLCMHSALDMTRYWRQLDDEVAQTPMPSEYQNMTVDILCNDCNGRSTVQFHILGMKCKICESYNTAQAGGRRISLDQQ
T1 sequence (Q96PM5 whole entry, looked up) 2: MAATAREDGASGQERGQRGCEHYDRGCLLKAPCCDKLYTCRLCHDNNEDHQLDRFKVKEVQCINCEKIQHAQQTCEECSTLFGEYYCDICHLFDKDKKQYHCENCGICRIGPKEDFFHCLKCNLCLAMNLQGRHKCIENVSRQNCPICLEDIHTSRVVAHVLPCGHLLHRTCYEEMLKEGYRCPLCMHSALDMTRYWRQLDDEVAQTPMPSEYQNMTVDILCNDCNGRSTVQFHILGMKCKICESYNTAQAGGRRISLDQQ

[8] = molecular target: T2, Pirh2 I107D (Homo sapiens)
T2 chain: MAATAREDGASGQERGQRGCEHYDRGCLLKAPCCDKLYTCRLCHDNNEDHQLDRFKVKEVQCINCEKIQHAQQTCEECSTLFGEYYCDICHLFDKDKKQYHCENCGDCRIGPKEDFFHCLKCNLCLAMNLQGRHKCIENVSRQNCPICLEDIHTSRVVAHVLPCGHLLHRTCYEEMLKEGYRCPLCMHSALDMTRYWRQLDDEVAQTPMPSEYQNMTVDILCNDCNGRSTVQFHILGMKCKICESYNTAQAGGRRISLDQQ

| Binder | Kd [1] [µM] | further results |
| --- | --- | --- |
| B1 | 22 |  |
| B2 | 3 |  |
| B3 | 23 |  |
| B4 | 0.9 | Kd [2]: 0.5 µM |
| B5 |  | Kd [3]: 0.9 µM |
| B6 | 0.8 |  |
| B7 | 0.7 |  |
| B8 | 1.9 |  |
| B9 |  | Kd [4]: 8.6 µM and 12 µM; Kd [5]: 7.4 µM; Kd [6]: 2.5 µM |
| B10 | 2.7 | Kd [2]: 1.5 µM |
| B11 | 13 |  |
| B12 | 0.5 |  |
| B13 | 2.3 |  |
| B14 |  | Kd [7]: 40 µM |
| B15 |  | Kd [3]: > 100 µM |
| B16 | 4.5 |  |
| B17 |  | Kd [8]: 9.1 µM |
| B18 | 0.5 |  |
| B19 | 57 |  |
| B20 |  | Kd [2]: 2.1 µM |
| B21 | 20 |  |
| B22 | 26 |  |
| B23 | 13 | Kd [2]: 10 µM |

From paper PMC10148881 (2023)
